Laboratory results reported in article PMC12102759.

B1: PEX5 peptide 108-123 (Peroxisomal targeting signal 1 receptor), 16-mer library wild type / PEX14 Pex14 (PEX14 PEX14, residues 16-84) (parent)
chain 1: GVADLALSENWAQEFL
chain 2: TPGSENVLPREPLIATAVKFLQNSRVRQSPLATRRAFLKKKGLTDEEIDMAFQQSGTAADEPSSLGPAT

Variants of: B1
Test: proteomic peptide phage display deep mutational scan (ProP-PD DMS): M13 P8 16-mer library selected against immobilised GST-tagged bait for four days (rounds), NGS of the eluted pools per day and pseudo-replica
Conditions: with PEX14 Pex14 (PEX14 PEX14, residues 16-84); bait immobilised on MaxiSorp plates (10 µg), library pre-cleared on GST, 2 h binding at 4 °C, five washes; one round per day, days 1-4; value from days 2 and 3; scale: average fractional NGS count over selection days 2 and 3

Point of comparison: chain 1 GVADLALSENWAQEFH [chain 1 L16H], screen value 0.000215. Against it:
- chain 1 GVADLHLSENWAQEFL [chain 1 A6H] — higher, 0.000488
- chain 1 GVADLLLSENWAQEFL [chain 1 A6L] — lower, 0.000211
- chain 1 GVADLQLSENWAQEFL [chain 1 A6Q] — higher, 0.000383
- chain 1 GVADLVLSENWAQEFL [chain 1 A6V] — lower, 0
- chain 1 GVADLYLSENWAQEFL [chain 1 A6Y] — lower, 0
- chain 1 GVADLALSENWDQEFL [chain 1 A12D] — lower, 0
- chain 1 GVADLALSENWFQEFL [chain 1 A12F] — higher, 0.000389
- chain 1 GVADLALSENWGQEFL [chain 1 A12G] — lower, 0.000152
- chain 1 GVADLALSENWHQEFL [chain 1 A12H] — higher, 0.000439
- chain 1 GVADLALSENWIQEFL [chain 1 A12I] — lower, 0.000211
- chain 1 GVADLALSENWPQEFL [chain 1 A12P] — lower, 0
- chain 1 GVADLALSENWRQEFL [chain 1 A12R] — lower, 0
- chain 1 GVADLALSENWSQEFL [chain 1 A12S] — higher, 0.000254
- chain 1 GVADLALSENWTQEFL [chain 1 A12T] — higher, 0.000373
- chain 1 GVADLALSENWVQEFL [chain 1 A12V] — lower, 0
- chain 1 GVADLALSENWWQEFL [chain 1 A12W] — lower, 6.63e-05
- chain 1 GVAALALSENWAQEFL [chain 1 D4A] — lower, 0.000207
- chain 1 GVAELALSENWAQEFL [chain 1 D4E] — higher, 0.000293
- chain 1 GVAILALSENWAQEFL [chain 1 D4I] — lower, 9.56e-05
- chain 1 GVAKLALSENWAQEFL [chain 1 D4K] — lower, 0
- chain 1 GVALLALSENWAQEFL [chain 1 D4L] — higher, 0.00112
- chain 1 GVANLALSENWAQEFL [chain 1 D4N] — lower, 0
- chain 1 GVAPLALSENWAQEFL [chain 1 D4P] — lower, 0
- chain 1 GVAQLALSENWAQEFL [chain 1 D4Q] — higher, 0.000734
- chain 1 GVASLALSENWAQEFL [chain 1 D4S] — higher, 0.00106
- chain 1 GVATLALSENWAQEFL [chain 1 D4T] — lower, 0
- chain 1 GVAVLALSENWAQEFL [chain 1 D4V] — lower, 0
- chain 1 GVAWLALSENWAQEFL [chain 1 D4W] — higher, 0.000313
- chain 1 GVADLALSDNWAQEFL [chain 1 E9D] — higher, 0.000711
- chain 1 GVADLALSFNWAQEFL [chain 1 E9F] — higher, 0.000305
- chain 1 GVADLALSGNWAQEFL [chain 1 E9G] — lower, 0.000125
- chain 1 GVADLALSINWAQEFL [chain 1 E9I] — lower, 0
- chain 1 GVADLALSLNWAQEFL [chain 1 E9L] — higher, 0.000321
- chain 1 GVADLALSMNWAQEFL [chain 1 E9M] — lower, 0.000152
- chain 1 GVADLALSNNWAQEFL [chain 1 E9N] — higher, 0.000239
- chain 1 GVADLALSQNWAQEFL [chain 1 E9Q] — lower, 0
- chain 1 GVADLALSRNWAQEFL [chain 1 E9R] — lower, 0
- chain 1 GVADLALSSNWAQEFL [chain 1 E9S] — lower, 0
- chain 1 GVADLALSTNWAQEFL [chain 1 E9T] — lower, 9.07e-05
- chain 1 GVADLALSVNWAQEFL [chain 1 E9V] — higher, 0.000378
- chain 1 GVADLALSYNWAQEFL [chain 1 E9Y] — lower, 9.07e-05
- chain 1 GVADLALSENWAQAFL [chain 1 E14A] — higher, 0.00268
- chain 1 GVADLALSENWAQDFL [chain 1 E14D] — lower, 0.000196
- chain 1 GVADLALSENWAQFFL [chain 1 E14F] — higher, 0.000333
- chain 1 GVADLALSENWAQGFL [chain 1 E14G] — higher, 0.000243
- chain 1 GVADLALSENWAQHFL [chain 1 E14H] — higher, 0.000765
- chain 1 GVADLALSENWAQIFL [chain 1 E14I] — higher, 0.000908
- chain 1 GVADLALSENWAQKFL [chain 1 E14K] — higher, 0.00049
- chain 1 GVADLALSENWAQLFL [chain 1 E14L] — higher, 0.000529
- chain 1 GVADLALSENWAQPFL [chain 1 E14P] — lower, 0
- chain 1 GVADLALSENWAQQFL [chain 1 E14Q] — higher, 0.00136
- chain 1 GVADLALSENWAQRFL [chain 1 E14R] — higher, 0.00542
- chain 1 GVADLALSENWAQSFL [chain 1 E14S] — higher, 0.00161
- chain 1 GVADLALSENWAQTFL [chain 1 E14T] — higher, 0.000432
- chain 1 GVADLALSENWAQVFL [chain 1 E14V] — higher, 0.000334
- chain 1 GVADLALSENWAQWFL [chain 1 E14W] — higher, 0.00347
- chain 1 GVADLALSENWAQYFL [chain 1 E14Y] — lower, 0.00013
- chain 1 GVADLALSENWAQEHL [chain 1 F15H] — higher, 0.00727
- chain 1 GVADLALSENWAQEIL [chain 1 F15I] — lower, 0
- chain 1 GVADLALSENWAQEKL [chain 1 F15K] — lower, 0
- chain 1 GVADLALSENWAQELL [chain 1 F15L] — lower, 0.000134
- chain 1 GVADLALSENWAQEWL [chain 1 F15W] — higher, 0.000382
- chain 1 GVADLALSENWAQEYL [chain 1 F15Y] — lower, 0
- chain 1 GVADDALSENWAQEFL [chain 1 L5D] — higher, 0.000324
- chain 1 GVADFALSENWAQEFL [chain 1 L5F] — lower, 0
- chain 1 GVADGALSENWAQEFL [chain 1 L5G] — lower, 0
- chain 1 GVADNALSENWAQEFL [chain 1 L5N] — lower, 0
- chain 1 GVADSALSENWAQEFL [chain 1 L5S] — lower, 0.000191
- chain 1 GVADVALSENWAQEFL [chain 1 L5V] — higher, 0.00065
- chain 1 GVADWALSENWAQEFL [chain 1 L5W] — higher, 0.000435
- chain 1 GVADYALSENWAQEFL [chain 1 L5Y] — higher, 0.000821
- chain 1 GVADLAGSENWAQEFL [chain 1 L7G] — higher, 0.000778
- chain 1 GVADLAHSENWAQEFL [chain 1 L7H] — lower, 0
- chain 1 GVADLAKSENWAQEFL [chain 1 L7K] — higher, 0.000262
- chain 1 GVADLANSENWAQEFL [chain 1 L7N] — lower, 0
- chain 1 GVADLAPSENWAQEFL [chain 1 L7P] — higher, 0.000675
- chain 1 GVADLAQSENWAQEFL [chain 1 L7Q] — lower, 0
- chain 1 GVADLASSENWAQEFL [chain 1 L7S] — lower, 0.00013
- chain 1 GVADLAVSENWAQEFL [chain 1 L7V] — higher, 0.000339
- chain 1 GVADLALSENWAQEFD [chain 1 L16D] — lower, 0
- chain 1 GVADLALSENWAQEFE [chain 1 L16E] — lower, 0.00013
- chain 1 GVADLALSENWAQEFF [chain 1 L16F] — lower, 0
- chain 1 GVADLALSENWAQEFG [chain 1 L16G] — higher, 0.00105
- chain 1 GVADLALSENWAQEFI [chain 1 L16I] — lower, 0
- chain 1 GVADLALSENWAQEFK [chain 1 L16K] — lower, 0.000183
- chain 1 GVADLALSENWAQEFN [chain 1 L16N] — lower, 0
- chain 1 GVADLALSENWAQEFP [chain 1 L16P] — lower, 0.000186
- chain 1 GVADLALSENWAQEFR [chain 1 L16R] — higher, 0.000857
- chain 1 GVADLALSENWAQEFV [chain 1 L16V] — higher, 0.00389
- chain 1 GVADLALSENWAQEFW [chain 1 L16W] — higher, 0.00162
- chain 1 GVADLALSEDWAQEFL [chain 1 N10D] — lower, 0
- chain 1 GVADLALSEFWAQEFL [chain 1 N10F] — higher, 0.000356
- chain 1 GVADLALSEGWAQEFL [chain 1 N10G] — lower, 0
